Assay results published in patent US20140341881A1 (DERMADIS, published 2014).

B1: human kallikrein 14 (hK14) (enzyme, UniProt Q9P0G3 25-251, looked up)
chain: IIGGHTCTRSSQPWQAALLAGPRRRFLCGGALLSGQWVITAAHCGRPILQVALGKHNLRRWEATQQVLRVVRQVTHPNYNSRTHDNDLMLLQLQQPARIGRAVRPIEVTQACASPGTSCRVSGWGTISSPIARYPASLQCVNINISPDEVCQKAYPRTITPGMVCAGVPQGGKDSCQGDSGGPLVCRGQLQGLVSWGMERCALPGYPGVYTNLCKYRSWIEETMRDK
notes: range counted on GenBank AAK48524 (printed), which may differ from the UniProt numbering; also called recombinant hK14
B2: ACTG9 (other)
chain: MRGSHHHHHHSRHPNSPLDEENLTQENQDRGTHVDLGLASANVDFAFSLYKQLVLKAPDKNVIFSPLSISTALAFLSLGAHNTTLTEILKGLKFNLTETSEAEIHQSFQHLLRTLNQSSDELQLSMGNAMFVKEQLSLLDRFTEDAKRLYGSEAFATDFQDSAAAKKLINDYVKNGTRGKITDLIKDLDSQTMMVLVNYIFFKAKWEMPFDPQDTHQSRFYLSKKKWVMVPMMSLHHLTIPYFRDEELSCTVVELKYTGNASALFILPDQDKMEEVEAMLLPETLKRWRDSLEFREIGELYLPKFSISRDYNLNDILLQLGIEEAFTSKADLSGITGARNLAVSQVVHKAVLDVFEEGTEASAATAVKTVDYAALVETRTIVRFNRPFLMIIVPTDTQNIFFMSKVTNPKQA
notes: also called rACTG9

Assays:
[1] = biological target: T1, AATWT (recombinant wild type alpha-1-antitrypsin) (human, UniProt P01009 25-418); experiment: progress curve
T1 construct: mature; also called rAATwt; rAAT
T1 sequence (P01009 other isoform, or with tags, fused parts or gaps): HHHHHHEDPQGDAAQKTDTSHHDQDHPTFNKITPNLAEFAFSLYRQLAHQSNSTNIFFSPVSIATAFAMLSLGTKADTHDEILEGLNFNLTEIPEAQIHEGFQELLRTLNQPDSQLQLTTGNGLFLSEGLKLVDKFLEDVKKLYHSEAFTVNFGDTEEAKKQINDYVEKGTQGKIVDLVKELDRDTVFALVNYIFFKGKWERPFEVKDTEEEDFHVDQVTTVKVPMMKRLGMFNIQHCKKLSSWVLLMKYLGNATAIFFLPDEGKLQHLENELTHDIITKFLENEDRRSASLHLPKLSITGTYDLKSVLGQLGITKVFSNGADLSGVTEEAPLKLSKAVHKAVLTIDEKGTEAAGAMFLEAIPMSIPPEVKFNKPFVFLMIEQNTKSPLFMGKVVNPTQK
Description: (§1) The association rate constants for interactions of hK14, with different inhibitors were determined under pseudo-first order conditions using the progress curve method (Morrison and Walsh, 1988). Under these conditions, a fixed amount of enzyme (2 nM) was mixed with different concentrations of inhibitor (0-80 nM) and an excess of substrate (20 μM). Reactions were performed in reaction buffer (50 mM Tris pH 7.5, 150 mM NaCl, 0.05% Triton X-100, 0.01% BSA) at 37° C. for 45 min and the rate of product formation was measured using a FLₓ800 fluorescence 96-well microplate reader (Biotek, USA) Inhibition is considered to be irreversible over the course of reaction and the progression of enzyme activity is expressed as product formation (P), beginning at a rate (vz) and is inhibited over time (t) at a first-order rate (kobs), where the rate constant is only dependent on the inhibitor concentration.

AATG9 [2] = biological target: T2, AATG9 (human, UniProt P01009 25-418); experiment: progress curve
T2 construct: mature; also called rAATG9
T2 sequence (P01009 other isoform, or with tags, fused parts or gaps): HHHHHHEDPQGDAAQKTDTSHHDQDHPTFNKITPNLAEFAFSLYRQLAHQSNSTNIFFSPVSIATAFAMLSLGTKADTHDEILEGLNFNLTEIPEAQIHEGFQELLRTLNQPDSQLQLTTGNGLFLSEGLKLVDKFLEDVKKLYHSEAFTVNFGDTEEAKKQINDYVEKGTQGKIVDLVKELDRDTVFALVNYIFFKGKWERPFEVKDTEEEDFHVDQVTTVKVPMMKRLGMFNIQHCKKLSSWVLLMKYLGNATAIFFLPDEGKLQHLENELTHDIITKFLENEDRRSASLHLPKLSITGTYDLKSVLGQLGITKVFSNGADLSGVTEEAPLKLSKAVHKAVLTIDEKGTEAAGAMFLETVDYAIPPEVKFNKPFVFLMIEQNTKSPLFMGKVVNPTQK
Description: as §1

AATE5 = biological target: T3, AATE5 (human, UniProt P01009 25-418); experiment: progress curve; * [I0]/[E0] < 5 * SI
T3 construct: mature
T3 sequence (P01009 other isoform, or with tags, fused parts or gaps): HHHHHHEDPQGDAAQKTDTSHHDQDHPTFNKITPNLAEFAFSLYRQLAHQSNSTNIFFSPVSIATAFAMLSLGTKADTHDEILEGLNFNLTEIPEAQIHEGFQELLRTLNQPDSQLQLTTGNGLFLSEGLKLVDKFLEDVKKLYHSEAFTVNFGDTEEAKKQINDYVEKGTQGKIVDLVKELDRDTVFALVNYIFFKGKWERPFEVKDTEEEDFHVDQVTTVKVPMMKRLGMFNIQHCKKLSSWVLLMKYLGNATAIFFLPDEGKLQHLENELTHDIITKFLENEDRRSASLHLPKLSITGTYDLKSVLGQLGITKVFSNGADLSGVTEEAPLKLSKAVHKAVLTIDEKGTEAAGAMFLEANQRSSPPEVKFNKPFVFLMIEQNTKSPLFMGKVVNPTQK
Description: as §1

AATG1g = biological target: T4, AATG1g (human, UniProt P01009 25-418); experiment: progress curve; * [I0]/[E0] < 5 * SI
T4 construct: mature
T4 sequence (P01009 other isoform, or with tags, fused parts or gaps): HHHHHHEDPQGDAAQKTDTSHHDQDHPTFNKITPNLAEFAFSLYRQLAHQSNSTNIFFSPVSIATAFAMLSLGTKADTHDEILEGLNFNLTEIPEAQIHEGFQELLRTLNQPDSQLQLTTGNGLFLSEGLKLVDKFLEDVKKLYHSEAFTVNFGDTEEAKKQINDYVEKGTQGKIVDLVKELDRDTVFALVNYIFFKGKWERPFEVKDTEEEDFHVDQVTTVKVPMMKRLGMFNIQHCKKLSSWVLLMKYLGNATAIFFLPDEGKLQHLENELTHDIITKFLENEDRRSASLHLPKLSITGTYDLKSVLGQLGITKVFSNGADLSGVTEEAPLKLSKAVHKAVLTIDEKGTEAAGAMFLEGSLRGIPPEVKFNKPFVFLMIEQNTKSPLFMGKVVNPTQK
Description: as §1

AATC11 = biological target: T5, AATC11 (human, UniProt P01009 25-418); experiment: progress curve; * [I0]/[E0] < 5 * SI
T5 construct: mature
T5 sequence (P01009 other isoform, or with tags, fused parts or gaps): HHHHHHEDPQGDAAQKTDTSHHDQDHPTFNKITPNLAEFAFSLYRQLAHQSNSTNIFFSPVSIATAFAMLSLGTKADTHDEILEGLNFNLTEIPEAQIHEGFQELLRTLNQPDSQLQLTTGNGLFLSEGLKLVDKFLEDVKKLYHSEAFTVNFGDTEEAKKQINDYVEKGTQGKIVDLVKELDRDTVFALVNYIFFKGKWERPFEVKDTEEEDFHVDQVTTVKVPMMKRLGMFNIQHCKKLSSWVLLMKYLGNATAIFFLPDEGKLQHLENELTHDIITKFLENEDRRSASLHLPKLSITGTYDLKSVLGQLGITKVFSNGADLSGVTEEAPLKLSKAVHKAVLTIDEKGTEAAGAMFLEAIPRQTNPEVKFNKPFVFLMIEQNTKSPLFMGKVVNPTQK
Description: as §1

AATE8 = biological target: T6, AATE8 (human, UniProt P01009 25-418); experiment: progress curve; * [I0]/[E0] < 5 * SI
T6 construct: mature; also called rAATE8
T6 sequence (P01009 other isoform, or with tags, fused parts or gaps): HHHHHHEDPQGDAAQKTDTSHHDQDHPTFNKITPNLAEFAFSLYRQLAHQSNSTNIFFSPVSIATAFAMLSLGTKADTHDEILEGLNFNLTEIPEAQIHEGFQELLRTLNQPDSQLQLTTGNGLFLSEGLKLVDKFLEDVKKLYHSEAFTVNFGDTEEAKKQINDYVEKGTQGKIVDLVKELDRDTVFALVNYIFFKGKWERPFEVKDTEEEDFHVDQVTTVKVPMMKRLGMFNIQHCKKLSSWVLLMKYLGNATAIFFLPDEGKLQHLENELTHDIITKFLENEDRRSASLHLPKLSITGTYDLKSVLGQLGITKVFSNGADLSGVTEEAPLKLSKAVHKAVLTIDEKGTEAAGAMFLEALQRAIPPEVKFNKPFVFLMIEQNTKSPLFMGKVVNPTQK
Description: as §1

AATG1 = biological target: T7, AATG1 (human, UniProt P01009 25-418); experiment: progress curve; * [I0]/[E0] < 5 * SI
T7 construct: mature
T7 sequence (P01009 other isoform, or with tags, fused parts or gaps): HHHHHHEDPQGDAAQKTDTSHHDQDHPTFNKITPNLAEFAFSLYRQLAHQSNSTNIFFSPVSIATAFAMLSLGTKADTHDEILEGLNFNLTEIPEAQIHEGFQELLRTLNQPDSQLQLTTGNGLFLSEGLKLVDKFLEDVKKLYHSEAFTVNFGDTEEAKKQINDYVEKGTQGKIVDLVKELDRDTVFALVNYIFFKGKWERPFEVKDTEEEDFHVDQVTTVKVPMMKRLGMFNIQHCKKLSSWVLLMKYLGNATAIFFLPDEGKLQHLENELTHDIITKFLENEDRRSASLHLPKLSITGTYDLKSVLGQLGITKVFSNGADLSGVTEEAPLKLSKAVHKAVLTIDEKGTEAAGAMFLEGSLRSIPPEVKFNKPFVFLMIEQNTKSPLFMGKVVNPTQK
Description: as §1

AATF3 = biological target: T8, AATF3 (human, UniProt P01009 25-418); experiment: progress curve; * [I0]/[E0] < 5 * SI
T8 construct: mature
T8 sequence (P01009 other isoform, or with tags, fused parts or gaps): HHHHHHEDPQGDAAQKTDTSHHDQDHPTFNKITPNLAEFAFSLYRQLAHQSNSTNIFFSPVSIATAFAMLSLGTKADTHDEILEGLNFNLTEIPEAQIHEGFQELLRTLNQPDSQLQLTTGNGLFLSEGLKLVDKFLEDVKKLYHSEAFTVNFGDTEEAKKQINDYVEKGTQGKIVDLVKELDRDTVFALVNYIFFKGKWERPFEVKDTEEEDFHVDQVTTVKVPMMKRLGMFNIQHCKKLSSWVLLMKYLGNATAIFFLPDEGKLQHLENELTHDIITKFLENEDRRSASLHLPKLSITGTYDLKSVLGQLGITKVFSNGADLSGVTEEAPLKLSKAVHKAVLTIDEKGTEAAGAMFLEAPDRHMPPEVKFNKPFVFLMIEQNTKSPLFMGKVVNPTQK
Description: as §1

[3] = biological target: T1, AATWT (recombinant wild type …); experiment: progress curve, pseudo-first order, 37 C
Description: as §1
(§2) Kinetic analysis of the inhibition of human hK14 by recombinant serpins were performed under pseudo-first-order conditions using an excess of inhibitor at various molar ratios of hK14. The time-dependent inactivation of the enzyme through reaction with serpin was monitored continuously, following the decrease in the rate of substrate turnover. Progress curves for reactions with different serpin concentrations were fitted to equation 1 to calculate values describing the rate constant (kobs). The association rate constants (kₐ) were determined from the slope of kobs values versus the concentration of the hK14 inhibitors.

AATG9 [4] = biological target: T2, AATG9; experiment: progress curve, pseudo-first order, 37 C
Description: as §1, §2

[5] = biological target: B1; experiment: residual hK14 activity after 4 h at 37 C against [I0]/[E0]
Description: SI values of rAAT, rACT, and their variants were determined with hK14 incubating the protease with varying concentrations of inhibitor. After an incubation of 4 hours at 37° C. in reaction buffer (50 mM Tris, pH 7.5, 150 mM NaCl, 0.05% Triton X-100, 0.01% BSA), the residual activity was detected by the addition of fluorescent substrate (Boc-Val-Pro-Arg-AMC). Fluorescence was measured with excitation at 340 nm (±15) and emission at 485 nm (±10) in black 96 well plates using a microplate fluorescence reader FLₓ800 (Bio-Tek Instruments, Inc.). The SI value corresponds to the abscissa intercept of the linear regression analysis of fractional velocity (velocity of inhibited enzyme reaction (vi)/velocity of uninhibited enzyme reaction (v₀)) vs. the molar ratio of the inhibitor to enzyme ([I₀]/[E₀]).

[6] = biological target: human plasma kallikrein (PK) (human, UniProt P03952 20-638); experiment: cell-based or functional assay
human plasma kallikrein (PK), sequence (P03952 20-638 limits assumed): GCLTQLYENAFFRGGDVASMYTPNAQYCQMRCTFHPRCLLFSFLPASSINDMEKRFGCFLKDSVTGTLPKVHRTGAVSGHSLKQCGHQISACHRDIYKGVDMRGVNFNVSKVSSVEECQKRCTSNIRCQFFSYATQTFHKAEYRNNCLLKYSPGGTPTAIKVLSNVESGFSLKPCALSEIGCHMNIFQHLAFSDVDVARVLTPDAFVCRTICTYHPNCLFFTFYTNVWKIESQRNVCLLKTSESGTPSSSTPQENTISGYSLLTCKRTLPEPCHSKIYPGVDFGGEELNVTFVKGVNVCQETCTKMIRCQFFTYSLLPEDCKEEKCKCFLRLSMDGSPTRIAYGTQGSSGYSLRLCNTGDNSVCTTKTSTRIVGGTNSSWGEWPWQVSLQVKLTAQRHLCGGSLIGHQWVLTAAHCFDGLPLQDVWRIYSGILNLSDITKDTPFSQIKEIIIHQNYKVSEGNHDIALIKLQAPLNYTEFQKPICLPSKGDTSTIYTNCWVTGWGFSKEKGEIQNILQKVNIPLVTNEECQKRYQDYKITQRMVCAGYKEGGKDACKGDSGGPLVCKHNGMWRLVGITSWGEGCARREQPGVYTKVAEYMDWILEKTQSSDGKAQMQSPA

human kallikrein 5 (hK5) = biological target: T9, human kallikrein 5 (hK5) (human, UniProt Q9Y337 67-293, limits assumed); experiment: cell-based or functional assay
T9 sequence (looked up): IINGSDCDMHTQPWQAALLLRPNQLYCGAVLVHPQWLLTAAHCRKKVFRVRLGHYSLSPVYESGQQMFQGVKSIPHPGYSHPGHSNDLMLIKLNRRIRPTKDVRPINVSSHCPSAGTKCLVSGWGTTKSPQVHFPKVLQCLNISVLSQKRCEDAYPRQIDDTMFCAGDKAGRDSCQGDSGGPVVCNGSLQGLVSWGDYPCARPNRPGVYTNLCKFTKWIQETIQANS

thrombin = experiment: cell-based or functional assay
human kallikrein 4 (hK4) = human kallikrein 4 (hK4) (human, UniProt Q9Y5K2 31-254, limits assumed); experiment: cell-based or functional assay
human kallikrein 4 (hK4), sequence (Q9Y5K2 31-254 limits assumed): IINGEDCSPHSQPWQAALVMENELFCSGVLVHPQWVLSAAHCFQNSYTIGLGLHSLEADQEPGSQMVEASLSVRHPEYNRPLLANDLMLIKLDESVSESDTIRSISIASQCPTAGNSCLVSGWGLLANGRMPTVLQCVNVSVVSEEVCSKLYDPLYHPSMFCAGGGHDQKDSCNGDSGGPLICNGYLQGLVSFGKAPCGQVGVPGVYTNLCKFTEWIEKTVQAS

[7] = biological target: T10, human neutrophil elastase (HNE) (human, UniProt P08246 30-247, limits assumed); experiment: cell-based or functional assay
T10 sequence (looked up): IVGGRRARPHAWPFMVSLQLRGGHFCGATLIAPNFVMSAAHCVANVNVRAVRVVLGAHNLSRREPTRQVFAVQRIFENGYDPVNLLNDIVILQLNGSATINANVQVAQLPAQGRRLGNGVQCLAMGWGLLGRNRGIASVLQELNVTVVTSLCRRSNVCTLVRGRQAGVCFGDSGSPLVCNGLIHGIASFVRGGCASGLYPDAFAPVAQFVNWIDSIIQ

[8] = biological target: human chymotrypsin (Chtr) (human, UniProt P17538 19-263); experiment: cell-based or functional assay
human chymotrypsin (Chtr), sequence (P17538 19-263): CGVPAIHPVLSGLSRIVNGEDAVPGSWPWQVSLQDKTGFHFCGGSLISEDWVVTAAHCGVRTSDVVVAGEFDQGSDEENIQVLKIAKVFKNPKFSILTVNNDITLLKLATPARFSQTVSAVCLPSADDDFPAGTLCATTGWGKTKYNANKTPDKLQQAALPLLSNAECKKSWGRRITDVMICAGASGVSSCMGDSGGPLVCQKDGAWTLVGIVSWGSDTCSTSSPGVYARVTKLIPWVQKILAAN

human kallikrein 6 (hK6) = human kallikrein 6 (hK6) (human, UniProt Q92876 22-244); experiment: cell-based or functional assay
[9] = biological target: T11, human kallikrein 13 (hK13) (human, UniProt Q9UKR3 26-277, limits assumed); experiment: cell-based or functional assay
T11 sequence (looked up): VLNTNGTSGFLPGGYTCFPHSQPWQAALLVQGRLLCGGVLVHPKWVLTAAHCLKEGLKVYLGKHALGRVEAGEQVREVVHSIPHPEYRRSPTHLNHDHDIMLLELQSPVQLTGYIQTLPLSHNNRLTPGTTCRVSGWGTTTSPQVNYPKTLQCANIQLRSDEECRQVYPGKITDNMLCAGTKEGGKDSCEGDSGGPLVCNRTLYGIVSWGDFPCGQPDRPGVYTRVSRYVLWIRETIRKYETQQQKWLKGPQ

human kallikrein 8 (hK8) = biological target: T12, human kallikrein 8 (hK8) (human, UniProt O60259 33-260); experiment: cell-based or functional assay
T12 sequence (looked up): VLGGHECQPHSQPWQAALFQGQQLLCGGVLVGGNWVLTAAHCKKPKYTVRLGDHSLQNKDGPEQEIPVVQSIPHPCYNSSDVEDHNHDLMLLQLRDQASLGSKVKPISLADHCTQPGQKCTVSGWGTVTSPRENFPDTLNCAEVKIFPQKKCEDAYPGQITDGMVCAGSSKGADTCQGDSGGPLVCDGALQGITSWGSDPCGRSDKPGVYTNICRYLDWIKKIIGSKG

human kallikrein 2 (hK2) = human kallikrein 2 (hK2) (human, UniProt P20151 25-261); experiment: cell-based or functional assay
[10] = biological target: B1; experiment: cell-based or functional assay
[11] = biological target: prostate specific antigen (PSA, hK3) (human, UniProt P07288 25-261); experiment: cell-based or functional assay
[12] = biological target: B1; experiment: progress curve
[13] = biological target: B1; experiment: progress curve; remark: listed apart in the source
[14] = biological target: B1; experiment: residual hK14 activity against [I0]/[E0]
Procedure, shortened: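 hK14 preincubated 4 hours at 37° C with varying inhibitor concentrations in 50 mM Tris pH 7.5, 150 mM NaCl, 0.05% Triton X-100, 0.01% BSA; residual activity read with Boc-Val-Pro-Arg-AMC (ex 340/em 485 nm). SI taken as abscissa intercept of vi/v₀ versus [I₀]/[E₀] linear regression.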

[15] = biological target: B1; experiment: progress curve, pseudo-first order, 37 C
Description: as §1, §2

Work on B1 yielded a kon [1] of 263000 M⁻¹ s⁻¹, a kon (AATG9 [2]) of 217000 M⁻¹ s⁻¹ and a kon (AATE5) of 28000 M⁻¹ s⁻¹. It also gave a kon (AATG1g) of 257000 M⁻¹ s⁻¹, a kon (AATC11) of 63000 M⁻¹ s⁻¹ and a kon (AATE8) of 242000 M⁻¹ s⁻¹. For the same binder, the kon (AATG1) was 168000 M⁻¹ s⁻¹, the kon (AATF3) was 13000 M⁻¹ s⁻¹ and the kon [3] was 263000 M⁻¹ s⁻¹. It also gave a kon (AATG9 [4]) of 217000 M⁻¹ s⁻¹.

With B2 the “SI (stoichiometry of inhibition)” value [5] was 1.5, the Percentage inhibition [6] was 0% and the Percentage inhibition (human kallikrein 5 (hK5)) was 0%. For the same binder, the Percentage inhibition (thrombin) was 0%, the Percentage inhibition (human kallikrein 4 (hK4)) was 0% and the Percentage inhibition [7] was 0%. The Percentage inhibition [8] was 100%, the Percentage inhibition (human kallikrein 6 (hK6)) was 0% and the Percentage inhibition [9] was 0%. The Percentage inhibition (human kallikrein 8 (hK8)) was 0%, the Percentage inhibition (human kallikrein 2 (hK2)) was 0% and the Percentage inhibition [10] was 100%. For the same binder, the Percentage inhibition [11] was 0%, the kon [12] was 75000 M⁻¹ s⁻¹ and the kon [13] was 74000 M⁻¹ s⁻¹. The “SI (stoichiometry of inhibition)” value [14] was 1.5 and the kon [15] was 74000 M⁻¹ s⁻¹.
